Measurements: patent US7700353B2, “Compositions and methods for inducing apoptosis in tumor cells” (E-P Therapeutics, Inc., priority 1998, dated 2010)

How the values were obtained:
[1] = test system: MDA-MB-231 and ZR-75-1 cells; experiment: Colony formation of hEb cDNA transfectants; type: cell-based, human; settings: cells transfected with hEb cDNA
Experimental: Two gene constructs, CMV-IG F-1-sp-hEb-cDNA-IRES-EGFP and CMV-IRES-EGFP were used in the transfection studies. The first construct (FIG. 9B) contained hEb peptide cDNA (with a signal peptide sequence of hlGF-1), a ribosome re-entry site (IRES) and an enhanced green fluorescence protein (EGFP) marker gene. […] The expression of both gene constructs was driven by a promoter from CMV.
(§1) Transfection of the cells was accomplished as follows. MDA-MB-231 cells were cultured in F12/DMEM supplemented with 10% FBS and 10 ng/ml of insulin to 90% confluence. About 5×10^6 cells were harvested and resuspended in 1 mL of serum-free F12/DMEM containing 20 µg of un-linearized constructs. The cells were electroporated in a BRL Cell-Porator using the following settings: low .OMEGA., 1180 micro Faraday (µF) capacitance, and two pulses at 200 volts. Following electroporation, cells were resuspended in 12 mL of fresh growth medium and seeded into a 6-well plate to recover. Permanent transfectants expressing green fluorescence protein (GFP) were enriched in a medium containing neomycin (G418) at 1 mg/mL for ten days and followed with 500 µg/mL for continuous maintenance. Individual green cell clones of transfectants were isolated from the enriched population by the method of serial dilution. […]

[2] = test system: various human cancer cell lines; experiment: Killing of cancer cells in vitro (% cell growth); type: cell-based; settings: various amounts, about 48 hours
Experimental: FIG. 20 depicts the effects of synthetic hEB-peptide on killing of various human cancer cells. About 1×10^6 cells of cancer cells were seeded in each well of a 96-well plate and various amounts of synthetic hEb-peptide were added as indicated. The cells were cultured for about 48 hours and the % of cell growth was determined.
About 1×10^6 cells of various human cancer cell lines were seeded in each well of a 96-well culture plate with various amounts of synthetic human Eb-peptide (shEb-peptide). It is specifically contemplated by the inventors that in any of the examples of the preferred embodiments described herein, synthetic or recombinant E domain peptides can be used. After incubation for about 48 hours, the growth of cells in each well was determined and compared to non-hEb-peptide controls.

[3] = test system: ZR75-1 and MDA-MB 231 cell lines (single-cell clones); experiment: Morphological change in single-cell malignant clones; type: cell-based, human
Experimental: Because each of these tumor cell lines obtained from ATCC contains a mixed population of tumorous and nontumorous cells, only between 25-40% of the cells from each cell line responded to induction by rtEa-4-peptide. […] About 1 -2×10^5 cells resuspended in their respective basal medium without FBS were plated in a 6-well culture chamber. Different amounts of trout Ea-4-peptide (0.4 µM, 0.8 µM and 1.6 µM) or control protein (1.6 µM) were added to the wells, and the cell cultures were incubated at 37° C. under a humidified atmosphere of 5% CO2. Twenty-four hours after initiation of the treatment, cells were observed under an Olympic inverted microscope equipped with phase contrast objective lenses (200× magnification).

[4] = test system: HT-29 or MDA-MB-231 cells; experiment: Colony formation assay in semi-solid medium (Ea-4 peptide); type: cell-based, human; settings: increasing concentrations (0.4 to 1.6 μM), 1.25% FBS, vs control protein
Experimental: Colony formation assays were conducted following the method described by Yang (1975). About 2×10^4 of HT-29 (colon cancer cells) or MDA-MB-231 cells (aggressive breast cancer cells) at log phase were plated in their respective basal medium containing 1.25% FBS and 0.5% purified agar (Difco laboratories), and supplemented with various concentrations (0.4 to 1.6 µM) of the recombinant rainbow trout Ea-4 peptide, or the same amount of the control protein, in 6-well culture chambers. After the medium is solidified, each well is overlaid with 1 mL of the basal medium (containing 1.25% FBS) supplemented with same concentration of the trout Ea-4 peptide. The plates were incubated at 37° C. in a humidified incubator with 5% CO2 and examined daily under an inverted microscope for 2-3 weeks. Colonies were observed under an Olympic inverted microscope equipped with phase contrast objective lenses (final magnification: 40×). Colonies with sizes ≥50 µm were scored. The viability of cells at the conclusion of the experiment was confirmed by dye extrusion assay with tryptan blue. The assay was conducted two times.

[5] = test system: MDA-MB-231 cells; experiment: Soft agar colony formation of Ea-4 cDNA transfectants; type: cell-based, human; settings: cells transfected with Ea-4-peptide cDNA (clones E9 and E15)
Source text: Two gene constructs, CMV-IGF-1-sp-Ea-4-cDNA-IRES-EGFP and CMV-IRES-EGFP were used in the transfection studies. The first construct (FIG. 9A) contained Ea-4 peptide cDNA (with a signal peptide sequence derived from hlGF-I), a ribosome re-entry site (IRES) and an enhanced green fluorescence protein (EGFP) marker gene. […] The expression of both gene constructs was driven by a promoter from CMV. Vectors containing the recognized control sequences and marker gene are available from commercial sources (CLONTECH, Palo Alto, Calif.).
as §1, with “maintenance.” for “maintenance. Individual green cell clones of transfectants were isolated from the enriched population by the method of serial dilution.”

[6] = test system: ovarian cancer cells (SKOV-3); experiment: Apoptosis observed under microscope; type: cell-based, human; settings: 0.1-3.4 μM, 4 hours
Experimental: FIG. 22 depicts apoptosis in ovarian cancer cells (SKOV) induced by various amounts of rtEa4-peptide. SKOV cells were treated with various amounts (0.1-3.4 μM) for 4 hours and observed under a microscope. Arrows indicate apoptotic cells.
Killing of cancer cells by E-peptide could be the consequence of apoptosis or necrosis. To differentiate these two possibilities, MDA-MB-231 (C) cells were grown in culture in the presence of about 1.5 μM of trout Ea4-peptide. After about two hours of incubation the cells were observed under a microscope. […] FIG. 22 presents the results of the effect of trout Ea4-peptide on induction of apoptosis in ovarian cancer cells (SKOV-3).

[7] = test system: activated caspase-3 in MDA-MB-231(C); experiment: Activated caspase-3 staining; type: cell-based, human; settings: about 1.5 μM, about 48 hours
Experimental: FIG. 24 depicts the effect of rtEa4-peptide on induction of apoptosis in MDA-MB-231 cells treated with rtEa4-peptide. (A) Detection of apoptosis by TUNEL assay; (B) Detection of apoptosis y detecting the induction of the activated caspase-3 activity. MDA-MB-231 cells were treated with about 1.5 μM of rtEa4-peptide for about 48 hours, fixed and subjected to TUNEL assay or stained with anti-human activated caspase-3 serum conjugated with rhodamine. Hydrogen peroxide (H2O2), 0.5 mM, was used to induce apoptosis as a positive control.
Induction of caspase-3 has been widely used as an indicator of cells undergoing apoptosis.

[8] = test system: NIH 3T3 cells and caprine mammary epithelium cells (CMEC); settings: recombinant peptides; cited from earlier work

B1: hEb: chemically synthesized human Eb peptide of pro-IGF-I, 77 amino acid residues (SEQ ID NO:1) (peptide, listed as Homo sapiens)
chain: RSVRAQRHTDMPKTQKYQPPSTNKNTKSQRRKGWPKTHPGGEQKEGTEASLQIRGKKKEQRREIGSRNAECRGKKGK
colony formation activities [1]: greatly reduced or diminished completely
killing of cancer cells [2]: different degrees of killing

B2: rtEa-4: recombinant Ea-4 peptide of rainbow trout pro-IGF-I, 74 amino acid residues (SEQ ID NO: 2) (protein)
chain: RSVRAQRHTDMPRTPKVSTAVQNVDRGTERRTAQHPDKTKTKKKPLSGHSHPSCKEVHQKNSSRGNTGGRNYRM
modifications: Oncorhynchus mykiss
extent of the morphological change ([3]; 0.4 to 1.6 μM): proportional to the amounts
cells responsive to treatment ([3]; purified single-cell clones, 0.4-1.6 μM, 24 hours): ~95%
colonies developed in soft agar medium [4]: fewer colonies
colony formation activity [5]: abolished
apoptosis (microscopy) [6]: dose-dependent induction of apoptosis
level of activated caspase-3 activity [7]: induced
mitogenic activity [8]: possess mitogenic activity
